{
  "source": "paper doi:10.1101/2025.04.04.647053",
  "about": "(bioRxiv, 2025)",
  "target": "the molecule itself",
  "experiment": "cryo-EM structure",
  "data": [
    {"protein": "AND-1 (natural protein, H. sapiens, UniProt O75717 1-1129, looked up) MPATRKPMRYGHTEGHTEVCFDDSGSFIVTCGSDGDVRIWEDLDDDDPKFINVGEKAYSCALKSGKLVTAVSNNTIQVHTFPEGVPDGILTRFTTNANHVVFNGDGTKIAAGSSDFLVKIVDVMDSSQQKTFRGHDAPVLSLSFDPKDIFLASASCDGSVRVWQISDQTCAISWPLLQKCNDVINAKSICRLAWQPKSGKLLAIPVEKSVKLYRRESWSHQFDLSDNFISQTLNIVTWSPCGQYLAAGSINGLIIVWNVETKDCMERVKHEKGYAICGLAWHPTCGRISYTDAEGNLGLLENVCDPSGKTSSSKVSSRVEKDYNDLFDGDDMSNAGDFLNDNAVEIPSFSKGIINDDEDDEDLMMASGRPRQRSHILEDDENSVDISMLKTGSSLLKEEEEDGQEGSIHNLPLVTSQRPFYDGPMPTPRQKPFQSGSTPLHLTHRFMVWNSIGIIRCYNDEQDNAIDVEFHDTSIHHATHLSNTLNYTIADLSHEAILLACESTDELASKLHCLHFSSWDSSKEWIIDLPQNEDIEAICLGQGWAAAATSALLLRLFTIGGVQKEVFSLAGPVVSMAGHGEQLFIVYHRGTGFDGDQCLGVQLLELGKKKKQILHGDPLPLTRKSYLAWIGFSAEGTPCYVDSEGIVRMLNRGLGNTWTPICNTREHCKGKSDHYWVVGIHENPQQLRCIPCKGSRFPPTLPRPAVAILSFKLPYCQIATEKGQMEEQFWRSVIFHNHLDYLAKNGYEYEESTKNQATKEQQELLMKMLALSCKLEREFRCVELADLMTQNAVNLAIKYASRSRKLILAQKLSELAVEKAAELTATQVEEEEEEEDFRKKLNAGYSNTATEWSQPRFRNQVEEDAEDSGEADDEEKPEIHKPGQNSFSKSTNSSDVSAKSGAVTFSSQGRVNPFKVSASSKEPAMSMNSARSTNILDNMGKSSKKSTALSRTTNNEKSPIIKPLIPKPKPKQASAASYFQKRNSQTNKTEEVKEENLKNVLSETPAICPPQNTENQRPKTGFQMWLEENRSNILSDNPDFSDEADIIKEGMIRFRVLSTEERKVWANKAKGETASEGTEAKKRKRVVDESDETENQEEKAKENLNLSKKQKPLDFSTNQKLSAFAFKQE", "values": [
      {"measurement": "stoichiometry N", "result": 3}
    ]}
  ]
}
